In patent EP4361176A1:

Key:
[1] = target: human FcγRIIb extracellular domain with C-terminal His-tag (human) (UniProt P31994); assay: SPR (Biacore T200), FcγRIIb, amount bound per unit captured antibody
[2] = target: human FcγRIIb extracellular domain with C-terminal His-tag (human) (UniProt P31994); assay: SPR; binding amount / that of 04H1656-G1m/04L1610-lam1

Sequence of human FcγRIIb extracellular domain with C-terminal His-tag (human) (P31994 43-217): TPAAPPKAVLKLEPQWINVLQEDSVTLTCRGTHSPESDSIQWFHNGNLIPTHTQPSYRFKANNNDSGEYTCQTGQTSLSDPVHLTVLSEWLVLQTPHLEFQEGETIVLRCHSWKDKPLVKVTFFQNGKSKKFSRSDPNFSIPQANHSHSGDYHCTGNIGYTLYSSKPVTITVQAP

Row | Binding amount [1] | Relative binding amount [2] | Binder
1 | 0.014 | 1.7 | 04H1654-KT462/04L1610-lam1//04H1656-HT441/04L1610-lam1 (antibody, human IgG1, lambda) heavy 1: QVQLVESGGGVVQPGGSLRLSCAASGFTFSSKTMNWVRQAPGKGLEWVSSISTQSHYIYYARSVRGRFTISRDNAKNSLYLQMNSLRAEDTAVYYCARYGKREDMLWVFDYWGQGTLVTVSSASTKGPSVFPLAPSSKSTSGGTAALGCLVKDYFPEPVTVSWNSGALTSGVHTFPAVLQSSGLYSLSSVVTVPSSSLGTQTYICNVNHKPSNTKVDKRVEPKSCDKTHTCPPCPAPEFQWGPMVFLFPPKPKDVLMISRTPEVTCVVVDVSDEEPEVKFNWYVDGVEVHNAKTKPREEQYNATYRVVSVLPVLHQDWLNGKEYKCKVSNDALPAPIEKTISKAKGQPREPQVYTLPPSRKEMTKNQVSLTCLVKGFYPSDIAVEWESNGQPENNYKTTPPVLDSDGSFFLYSKLTVDKSRWQQGNVFSCSVMHEALHNHYTQKSLSLSP heavy 2: QVQLVESGGGVVQPGGSLRLSCAASGFTFSSKTMNWVRQAPGKGLEWVSSISTQSHYIYYAESVRGRFTISRDNAKNSLYLQMNSLRAEDTAVYYCARYGAREDMLWVFDYWGQGTLVTVSSASTKGPSVFPLAPSSKSTSGGTAALGCLVKDYFPEPVTVSWNSGALTSGVHTFPAVLQSSGLYSLSSVVTVPSSSLGTQTYICNVNHKPSNTKVDKRVEPKSCDKTHTCPPCPAPELLAGPSVFLFPPKPKDVLMISRTPEVTCVVVDVSHEEPEVKFNWYVDGVEVHNAKTKPREEQYNATYRVVSVLPVLHQDWLNGKEYKCKVSNDALPAPIEETISKAKGQPREPQVYTLPPSREEMTKNQVSLTCLVKGFYPSDIAVEWESNGQPENNYKTTPPVLDSDGSFFLYSKLTVDKSRWQQGNVFSCSVMHEALHNHYTQESLSLSP light: QSALTQPPSASGSPGQSVTISCEGPSTGVGDYNWVHWYQQHPGKAPKLMIYFTSKKPSGVPDRFSGSKSGNTASLTVSGLQAEDEADYYCQTYAAPLGPMFGGGTKLTVLGQPKAAPSVTLFPPSSEELQANKATLVCLISDFYPGAVTVAWKADSSPVKAGVETTTPSKQSNNKYAASSYLSLTPEQWKSHRSYSCQVTHEGSTVEKTVAPTECS
2 | 0.012 | 1.5 | 04H1654-KT473/04L1610-lam1//04H1656-HT451/04L1610-lam1 (antibody) heavy 1: QVQLVESGGGVVQPGGSLRLSCAASGFTFSSKTMNWVRQAPGKGLEWVSSISTQSHYIYYARSVRGRFTISRDNAKNSLYLQMNSLRAEDTAVYYCARYGKREDMLWVFDYWGQGTLVTVSSASTKGPSVFPLAPSSKSTSGGTAALGCLVKDYFPEPVTVSWNSGALTSGVHTFPAVLQSSGLYSLSSVVTVPSSSLGTQTYICNVNHKPSNTKVDKRVEPKSCDKTHTCPPCPAPEFQWGPMVFLFPPKPKDVLMISRTPEVTCVVVDVSDEEPEVKFNWYVDGVEVHNAKTKPREEQYNATYRVVSVLPVLHQDWLNGKEYKCKVSNDALPAPIEKTISKAKGQPREPQVYTLPPSRKEMTKNQVSLTCLVKGFYPSDIAVEWESNGQPENNYKTTPPVLDSDGSFFLYSKLTVDKSRWQQGNVFSCSVMHEALHAHTTRKELSLSP heavy 2: QVQLVESGGGVVQPGGSLRLSCAASGFTFSSKTMNWVRQAPGKGLEWVSSISTQSHYIYYAESVRGRFTISRDNAKNSLYLQMNSLRAEDTAVYYCARYGAREDMLWVFDYWGQGTLVTVSSASTKGPSVFPLAPSSKSTSGGTAALGCLVKDYFPEPVTVSWNSGALTSGVHTFPAVLQSSGLYSLSSVVTVPSSSLGTQTYICNVNHKPSNTKVDKRVEPKSCDKTHTCPPCPAPELLAGPSVFLFPPKPKDVLMISRTPEVTCVVVDVSHEEPEVKFNWYVDGVEVHNAKTKPREEQYNATYRVVSVLPVLHQDWLNGKEYKCKVSNDALPAPIEETISKAKGQPREPQVYTLPPSREEMTKNQVSLTCLVKGFYPSDIAVEWESNGQPENNYKTTPPVLDSDGSFFLYSKLTVDKSRWQQGNVFSCSVMHEALHAHTTREELSLSP light: QSALTQPPSASGSPGQSVTISCEGPSTGVGDYNWVHWYQQHPGKAPKLMIYFTSKKPSGVPDRFSGSKSGNTASLTVSGLQAEDEADYYCQTYAAPLGPMFGGGTKLTVLGQPKAAPSVTLFPPSSEELQANKATLVCLISDFYPGAVTVAWKADSSPVKAGVETTTPSKQSNNKYAASSYLSLTPEQWKSHRSYSCQVTHEGSTVEKTVAPTECS
